Reference: the nanobody polyreactivity screen of Harvey et al. (2022)

Assay: yeast display, Sf9 membrane polyspecificity reagent, FACS + sequencing; frameworks hold sequencing errors
Method in brief: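 Galactose induction of a Saccharomyces cerevisiae BJ5465 synthetic nanobody display library ran 36–48 hours. The cells were then stained for 1 hour at 4 °C with 10% biotinylated, detergent-solubilized Sf9 membrane reagent, pulled down on streptavidin microbeads and FACS-sorted into low and high (top ~1%) gates on expression and reagent-binding fluorescence. Labels for polyreactivity follow the gate of origin.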

QVQLHESGGGLVQAGGSLRLSCAASGTISYAGPMGWYRQAPGTEREFVAGIGVGSNTNYADSVKGRYTIIRDNAKNTVYLQMNSLKPEDTAVYYCAVGGYAPLGRPYWGQGTQVTVSS
polyreactivity (PSR sort gate): low polyreactivity

QVHLVESGGGLVQAAGILRLSSAPSGSIFPYYAMGWYRQAPGKEREFVAAINYAGGSTYYADSVKGRFTISRDNAKNTVYLQMNSLKPEDTAVYYCNARTFGPNGKHRYGYWGQGTQVTVSS
polyreactivity (PSR sort gate): high polyreactivity

QVQLVESGGGLVQAGGSHRLSCAASGSIFRGYAMGWSIQAPGKERELVAAISWRGTSTYYADSVKGRFTISRDNAKNTVYLQMNSLKPEDTAVYYCAADLDGDYYYYGQGNDYWGQGTQVTVSS
polyreactivity (PSR sort gate): low polyreactivity

QVQLVESGGGLVQAGGSHRLSCAASARILYRNAMGRYRQAPGKERELVAAITTRGTSTYYADSVKGRFTISRDNANNTVYLQMNSLKPEDTAVYYCNKVTRDLTQGYDYWGQGTQVTVSS
polyreactivity (PSR sort gate): high polyreactivity

QVQLVESGGGLVQAGGSLRLSCAASGRTFYFNGMGWSRQAPGKETELVAVITKSGGDTYYADSVKGRFTISRDNAKNTVYLQMNSLKPEDTAVYYCAAVYGYYTYWIPGFTWAVDYWGQGTQVTVSS
polyreactivity (PSR sort gate): low polyreactivity

QVQLVESGGGLVQAGGSLRLSCAASGSIVYYYGMGWYRPAPGKETELVAAISTGGSTYYADSVKGRFTISRDKAKKTVYLQMNSLKPEDTADFYCSADYYTQWQTRYDYWGQGTQVTVSS
polyreactivity (PSR sort gate): low polyreactivity

QVQLVESGGGLVQAGGSLRLSCAASGRTFAPNAMGRSRQAPGKERELVAAITSIGTRTYYADSVKGRFTISRDNAKNTVYLHKNSLKTEVTAVYYCNKKRNADYDYWGQGTQVTVSS
polyreactivity (PSR sort gate): low polyreactivity

QVQLVESGAGLFQAGGSLRLSCAPSGSIFAPNDMGWYRQAPGKERELVAAITSSGGRTYYADSVKGRFTISRDNAKNTVYLQMNSLKPEDTAVYYCAADHGYQYGYWGQGTHVTVSS
polyreactivity (PSR sort gate): low polyreactivity

QVQLVESGGVLVQAGGSLRLSCAPSGYIYSKYAMGWYRQAPGKERELVASITGRGSRTYYADSVKGRFTISRDNAKNTVYLQMNSLKPEDIAVYFCAADWYGQKTSNRWYFRPGYDYWGQGTQVTVSS
polyreactivity (PSR sort gate): high polyreactivity

QVQLQESGGGLVQAGGSQRLSCAASGYIIYFQYMGWYRQAPGKEREFVAAISDGANTNYADSVKGRFTISRDNAKNTEYLQMNSLKPEDTAVYYCAVYADENYYYIYWGQGTQVTVSS
polyreactivity (PSR sort gate): low polyreactivity

QVQLVESGGGLVQAGGSLRLSCAASGRIFSRYTMGGYRQAPGKERELVAANSYRGGSTYYADSVKGRFTISRDNAKNTVYLQMNSLKPEDTAVYYCAARVQAIYRYDYWGQGTQVTVSS
polyreactivity (PSR sort gate): high polyreactivity

QVQLVESGGGLVQAGGSLRLSCAASGSTFLRNVMGWYRQAPGKESELVAAISSRGGSTHYADSVKGRFTISRDNAKNSVYLQMNILKPEDTAVYYCNAERSAAQYVRAAYDYWGQGTQVTVSS
polyreactivity (PSR sort gate): low polyreactivity

QDQLVEAGGGLVQAGGSLRKSCAASGRIFNTNAMGWNRQAPGKERELVAGITDSGDSTYYADSVKGRFTISRDNAKNTVYLQMNRLKPEDSAVYYCATDPASPYIYDFWGQGTQVTVSS
polyreactivity (PSR sort gate): low polyreactivity

QVQLVDSGGGLVQAGGSLRLSCAASGRIFDYNAMGWYRQAPGKERELVAVITGTGGTTYYADSVKGRFTISRDNAKNTVYLQMNSVKPEDTAVYYCNADDYRLTSLYIPERYDYWGQGTQLTVSS
polyreactivity (PSR sort gate): low polyreactivity

QVQLVESGGGLVQAGGSLRLSCAASGRTFLEKAMGWYRPAPGKEREFVAANTYSSGSTFYADSVKGRFTISRDNAKNTVYLQMNSLKPEDTAVYYCAARFWYRHARWYDYWGQGTQVTVSS
polyreactivity (PSR sort gate): high polyreactivity

QVQLVESGGGLVQAGGSLRLSCAASGRTFGKNAMGWYRQAPGKEREFVAAITSRGGSTYYADSVKGRFTISRDYAKNTVYLQMNSLKPEDTAVYYCNREYKRPSQRTEHYYWGQGSQVTVSS
polyreactivity (PSR sort gate): low polyreactivity

QVQLVESGGGLVQAGGSLRLSCAASGITFYIYAMGWYRQAPGKERELVATISWSDGRTYYADSVKGRFTISRDNAKNTVYLQINSLKPEDTAVYYCAADWWYYQFDYEYWGQGTQVTVSS
polyreactivity (PSR sort gate): low polyreactivity

QVQLVESGGGLVQAGGSLRLSCAASGSTFDINAMGWYRQAPGKERELVAAITSGGGTNYADSVKGRFTISRDNAKNTVYLQMNSMKPEDTAVYYCAARVRGKYDYWGQGTQVTVSS
polyreactivity (PSR sort gate): high polyreactivity

QVQLVESGGGLVQAGGSLRISCAASGSTFDNYAMGSYRHAPGKERELVAVITQSGGITFYADSVKGRFTISRDNSKNTVYLQMNSLKPEDSAVYYCNVELDRSWYYYWGQGTQVTVSS
polyreactivity (PSR sort gate): low polyreactivity

QVQLVESGGGLVQAGGSLRLSCADSGLIFKYYAMGWYRQAPGKERELVAVITSSGGSTYYADSVKGRFTISRDNAKNTVYLQMNSLKPEDTAVYYCAARRVRWPYDYWGQGTQVTVSS
polyreactivity (PSR sort gate): high polyreactivity

QVQLVETGGGLVQAGGSLRLSCAASGRTFRYNAMGWYRQAPGKERELVAAITGSGGSTYYADSVKGRFTISRDNAKNTVYLQMNSLKPEDTAVYYCARAYSYRLYPYGSWGQGTQVTVSS
polyreactivity (PSR sort gate): high polyreactivity

QVQLVESGGVLVQAGGSLRLSCAAYGFIFDYYAMGWYRQAPGKERELVAAITSRGGSTYYADSVKGRFTISRDNAKNTVYLQMNSLKPEDSAVYYCAARRRSAEYNYWGQGTQVTVSS
polyreactivity (PSR sort gate): high polyreactivity

QVQLVESGGGLVQAGGSLRLSCAASGSIFAGNAMGWYRQAPGKEREFVAAITWSGGSTYYADSVKGRFTISRDNAKNTVYLQMNSLKPEDTAVYYCAARAYKRKTYYYWGQGTQVTVSS
polyreactivity (PSR sort gate): high polyreactivity

QVQLQESGGGLVQAGGSQRLSCAASGYIFYFQYMGWYRQAPGKELEFVAAISDGANTNYADSVKGRITISRDNAKNTEYLQMNSLKPEDTAVYYCAVYADENDYYIYWGQGTQVTVSS
polyreactivity (PSR sort gate): low polyreactivity

QVQLVESGGGLVQAGGSLRLSCAASGRTFVGYSMGWYRQAPGKEREFVATITSSGRTNYADSVKGRFTISRDNAKNTVYLQMNSLKPEDTAVYYCNAVYGRFVDLRYDYWGHGTQVTVSS
polyreactivity (PSR sort gate): high polyreactivity

QVQLVESGGGLVQAGGSLRLSCAASGRTFTIYAMGSYRQAPGKERELVAAITRSGGGTYYADSVKGRFTISRDNAKNTVYFQMKSLKPEDTAVYYCARDKHWFYGVIGPEDYWGQGTQVTVSS
polyreactivity (PSR sort gate): low polyreactivity

QVQLVESGGGLVQAGGSLRLSCAASGRIFYPYAMGWYRQAPGQERELVAVINGSGGSTYYADSVKGRFTISRDNAKNTVYLQMNSLKPEDTAVYYCAAVGAYSRNEYDYWGQGTQVTVSS
polyreactivity (PSR sort gate): high polyreactivity

QVQLQESGGGLVQAGGSLRLGCAASGYISGFNEMGWYRQAPGKERELDAAITNGGISNYADSVKGRFTISRDNAKNTVYLQMNSLKPEDTAMYYCAAGDFDQSNHAYWGQDTQVTVSS
polyreactivity (PSR sort gate): high polyreactivity

QVQLVESGGGLVQAGGSLRLSCAASGLTFYVYTMGWYRQAPGKERELVAVISSGDSTYYADSVKGRFTISRDNAKNTVYLQMNSLKPEDTAVYYCAAGTHYRIVRYGLYDYWGQGTQVTVSS
polyreactivity (PSR sort gate): low polyreactivity

QVQLVESGGGLVQAGGSLRLSCAASGSTFTPYAMGWYRQAPGKERELVAAISWSDDSTYYADSVKGRFTISRDIAKNTVYLQMNSLKPEDTAVYYCAASAYVDYGVYTYIMDYWGQGTQVTVSS
polyreactivity (PSR sort gate): high polyreactivity

QVQLVESGGGLVQAGGSLRLSCAASGSIFVRYTMGWYRQAPGKEREMVAAISWGGGSTYYADSVKGRFTISRDNAKNTVYLQMNSLKPEDTAVYYCNADWSWYNYYDFDYWGQGTQVTVSS
polyreactivity (PSR sort gate): low polyreactivity

QVQLVESGGGLVQAGGSLRLSCAASGRIFRIYTMVWYRQAPGKERELVAVINSSGGRTYYADSVKGRFTISRDNAQNTVYLQMNSLKPEDTAVYYCNAVFGGGTMDYWGQGTQVTVSS
polyreactivity (PSR sort gate): high polyreactivity

QVQLVESGGGLVQAGGSLRLSCAASGRIFTSNAMGWYRQAPGKERELVAAISKSGGRTYYADSVKGRFTISRDNAKNTVYLQMNSLKPEDTAVYYCAKDNYWGQGTQVTVSS
polyreactivity (PSR sort gate): high polyreactivity

QVQLVESGGGLVQAGGSLRLSCAASGRIFGYYAMGWYRQAPGKQRELVAAISWSGGRTYYADSVKGRFTISRDNAKNTVYLQMNSLKPEDTAVYYCNKVYRVPITEEYDYWGQGTQVTVSS
polyreactivity (PSR sort gate): high polyreactivity

QVQLVESGVGLVQAGGSLRLSCAASGFIFGYYTMGWYRQAPGNERELVAAITYRGGSTYYAYSVKGRFTISRDNAKNTVYLQMNRLKPEDTAVYYCAIRTNVGHDSWGQGTEVTVSS
polyreactivity (PSR sort gate): high polyreactivity

QVKLVESGGGLVQAGGSLRLSFAASGSIFFIYAMGWYRQETGKERELVASINSGGTTSNADSVKGRFTISRDNAKNTVYLQLNSLKPADTAVYYCATRGIVGILDSLSEEYYYWGQGTQVSVSS
polyreactivity (PSR sort gate): low polyreactivity

QDQLVESGGGLVQAGGSLRLSCAASGRTFVAYAMGWSRQAPGKERELVARISSGGSTYYADSVKGRFTISRDNAKNTVYLQMNSLKPEDTAVYYCAADRGPYFVPWRRYDYWGQGTQVTVSS
polyreactivity (PSR sort gate): low polyreactivity

QVHLVESGGGIVQAGGSLRLSCAASGSIFGKNVMGWYRHAPGKERQLVAAITSGASTYYADSVKGRFTISRDNAKNTVYLQMNSLKPEDTPVYYCAARRWRKYYSGYNYWGQGTQVTVSS
polyreactivity (PSR sort gate): high polyreactivity

QVQLVESGGGLVQAGGSLRLSCAASGRISSGYAMGWYRQAPGKERELVAAISSIGGRTYYADSVKGRFTISRDNAKNTVYLQMNSLKPEDTAVYYCNTYPYIQRTWWYDYWGQGTQVTVSS
polyreactivity (PSR sort gate): high polyreactivity

QVQLVESGGGLVQAGGSLRLSCAASGFIFRYYAMGWYRQAPGKERELVAAISWSGGSTYYADSVKGRFTISRDNAKNTVYLQMNSLKPEDTAVYYCNARYKYLFTVSRYDYWGQGTQVTVSS
polyreactivity (PSR sort gate): high polyreactivity

QVQLVESGGGLVQAGDSLRLICAASGFIFDNYAMGWYRQAPGKERELVAAISQSGTSTYYADSVKVRFTISRDIAKNTVYLQLISLKPEDTAVYYCNVVPTGVHIFDYWGQGTQVTVSS
polyreactivity (PSR sort gate): low polyreactivity

QVQLVESGGGLVQAGGSLRLSCAASGRIFYLYAMGWYRQAPGKERELVAAISRSGGSTYYADSVKGRFTISRDNAKNTVYLQMNSLKPEDTAVYYCNTVWYFSSRTRLHDYWGQGTQVTVSS
polyreactivity (PSR sort gate): high polyreactivity

QVQLVESGGGLVQAGGSLRISCAGSGSIFSRNAMGWYSQAPGTERELVAAITGSGSSTYYADSVKGRFTISRDNAKNTVYLQMNSLKPEDTAGYYCNAARVYLSEWGQGTQGTVSS
polyreactivity (PSR sort gate): high polyreactivity
